Assay results reported in patent publication US12053511B2, “Cystatin C and Cystatin 9 to treat gut inflammation caused by thermal injury” (priority 2016, dated 2024).
Values joined by “and” are separate entries in the source; they are usually repeats but may differ in a detail not shown here. Equal entries are not always repeated.

What was measured:
[1] = test system: monocyte-derived macrophages (MDM) infected with NDM-1-producing Kp; test: Cytokine secretion from NDM-1 Kp-infected MDM; format: cell-based, human; details: rCSTC 50 pg, rCST9 25 or 50 pg, individually and in combination; vs Kp-infected MDM
IL-8 = IL-8 secretion from intestinal epithelial cells exposed to E. coli 083:H1 and/or flagellin; format: cell-based; details: after exposure to enteric E. coli 083:H1 and/or flagellin
Source text: (§1) It is known that intestinal leakage of intestinal bacteria and their product occurs following burn injury likely contributing to systemic infection and sepsis.

NDM-1 Kp [2] = test: LD90 NDM-1 Kp pneumonia murine model, survival; format: in vivo, Balb/c mice; details: for increased survival of Kp infected mice: single i.p. dose, 50 pg/mouse
Source text: To establish the optimal CST route, timing, and dosage regimen against MDR NDM-1 Kp-induced pneumonia, Balb/c mice (n=10-20 mice/gp) were infected with an i.n. LD90 and treated at various times and doses as depicted in Table 1. Doses included i.n. and/or i.p. single rCST9, rCSTC or a combination of rCST9 and rCSTC. Mice that were infected with NDM-1 Kp but were not treated served as controls. rCST treatments by routes, doses, or as a combined therapy were studied to select an optimal regimen.
Evaluate optimal timing and dosage of rCST-9 and/or PEG-rCST9 administration post-infection. Balb/c mice (n=10-20 mice/gp) were intranasally (i.n.) infected with approximately 1.82×10^8 CFU/mouse of Kp 2146 (as established hereinabove) then treated i.n. or i.p. with rCST9, human recombinant cystatin C (rCSTC) or a combination of rCST9 and rCSTC as depicted in Table 1. Kp infected alone served as controls. […] Therefore, as a comparative control to rCST9, the inventors evaluated the effectiveness of rCSTC against pneumonia using the same doses of 50 and/or 500 pg/mouse.
The potential for rCST9/rCSTC treatment to extend the period before successful antibiotic intervention was initiated was determined. For these evaluations, suboptimal doses of colistin were used to determine the extent of protection afforded by rCSTs as well as to minimize side effects/toxicity caused by this antibiotic (n=10 mice/gp). Doses, timing, and route of colistin were chosen based on efficacy studies of colistin in a mouse model of severe, established MDR pneumonia or a very low dose of colistin then adjusted to suboptimal levels for this study. LD90 NDM-1 Kp-challenged mice were treated with the rCST9/rCSTC 3 d i.p. treatment and then given 2 doses of colistin at 20 mg/kg/day or 1.25 mg/kg/day on day 4 and 5 PI.
Mouse model of pneumonia and CST treatments. Eight-week old female Balb/c mice weighing between 21 and 24 grams (Jackson Laboratories) were housed in an Association for Assessment and Accreditation for Laboratory Animal Care (AAALAC)-approved housing facility and permitted to adjust to their environment for 7 d prior to procedures, receiving free access to food and water throughout the study. All procedures were approved by the University of Texas Medical Branch IACUC and performed humanely with minimal suffering. […] One hour PI, mice were administered an i.n. dose of rCST9/rCSTC (50 pg of each) and then, this group of mice was given an i.p. injection of rCST9/rCSTC (500 pg of each) 3 d PI. A parallel group of infected mice received only a single i.p. dose of rCST9/rCSTC, PEG-rCST9/rCSTC (500 pg of each), or PEG-rCST9 (500 pg) alone 3 d PI. NDM-1-Kp infected mice alone or uninfected mice served as controls. Survival was observed up to 15 days post treatment. Additional groups (n=4 mice/group) of infected and CST-treated mice were euthanized at selected time points (24 h, 72 h, 5 and/or 10 d PI) to harvest lungs. Additional groups were treated with i.n. rCSTs (50 pg of each) as described above but they were euthanized at 30 min, 1 h and 3 h to collect lungs for the quantification of lipid peroxidase by-product, known as malondialdehyde (MDA), as described below.
Additional groups of mice (n=15 mice/group) were treated with the optimal CST treatment regimens of an i.n. dose of rCST9/rCSTC (50 pg of each), followed by an i.p. injection of rCST9/rCSTC (500 pg of each) 3 d PI or the single i.p. dose of rCST9/rCSTC (500 pg of each). At 4 d PI, mice were given 2 separate i.p. injections of colistin (JHP Pharmaceuticals, LLC; colistimethate sodium; 20 mg/kg/mouse or 1.25 mg/kg/day) 8 h apart for 2 d.

NDM-1 Kp [3] = test: In vitro bacteria viability and growth assay; format: cell-based, Klebsiella pneumoniae BAA-2146; details: given individually and in combination
Source text: Anti-microbial activity of rCST9/rCSTC against NDM-1 Kp. […] To address this directly, PrestoBlue® was used to determine the viability of rCST9/rCSTC-treated NDM-1 Kp based in the reagents rapid reduction by metabolically active bacteria. […] The most substantial decrease in bacterial growth occurred with 50, 500, and 1000 pg of rCSTs compared to lower doses of 10 and 25 pg of rCSTs (FIGS. 7A-C).
Bacteria preparation. The MDR New Delhi metallo-beta-lactamase-1 (NDM-1) producing Klebsiella pneumoniae BAA-2146™ was purchased from ATCC and expanded for 18 hours in 10 mL of brain heart infusion (BHI) broth while shaking at 37° C. The overnight culture was pelleted by centrifugation and then suspended in PBS. Serial dilutions were performed to obtain the desired concentration. Ten-fold dilutions were plated on BHI agar to confirm experimental dosage.
In vitro bacteria viability and growth assay. As a measure of NDM-1 Kp viability, aliquots were treated with Prestoblue® cell viability reagent (Invivogen) following exposure to CSTs. […] Following incubation, […] of Prestoblue® reagent was added to each sample and incubated for 1 h before quantification of cell viability via absorbance at 570-600 nm measurement (Bio-Tek; Epoch Model). […] Additionally, 100 μL of cultures were plated on BHI plates to quantify colony-forming units (CFU) following an overnight incubation at 37° C. […]

gut microbiome = test: Gut microbiome in gavaged mice given 30% full-thickness burn; format: in vivo, Balb/c mice; details: gavage 50 pg/mouse, then 30% full-thickness burn
Source text: as §1

MIP-1 and IL-8 = test: Systemic cytokines in gavaged mice given 30% full-thickness burn; format: in vivo, Balb/c mice; details: gavage 50 pg/mouse, then 30% full-thickness burn; specifically in the lungs
Source text: as §1

[4] = 50 pg per mouse, i.n., 1 h pre-infection
[5] = 50 pg per mouse, i.n., 3 d post-infection
[6] = 50 pg per mouse, i.p. then i.p., 1 h and 3 d post-infection
[7] = 500 pg per mouse, i.n., 1 h and 3 d post-infection
[8] = 500 pg per mouse, i.n., 1 h pre-infection

Row | Molecule | cytokine secretion from infected MDM [1] | IL-8 secretion from intestinal epithelial cells (IL-8) | increased % survival of Kp LD90 mice (NDM-1 Kp [2]; [4]) | increased % survival of Kp LD90 mice (NDM-1 Kp [2]; [5]) | increased % survival of Kp LD90 mice (NDM-1 Kp [2]; [6]) | increased % survival of Kp LD90 mice (NDM-1 Kp [2]; [7]) | increased % survival of Kp LD90 mice (NDM-1 Kp [2]; [8]) | increased survival of Kp infected mice (NDM-1 Kp [2]) | replication of NDM-1-producing Kp (NDM-1 Kp [3]) | gut microbiome (gut microbiome) | systemic MIP-1 and IL-8 secretion (MIP-1 and IL-8)
1 | rCSTC: human recombinant cystatin C (CST3), cysteine proteinase inhibitor; purchased from R&D Systems (protein, UniProt P01034 27-146, looked up) Cystatin-C: SSPGKPPRLVGGPMDASVEEEGVRRALDFAVGEYNKASNDMYHSRALQVVRARKQIVAGVNYFLDVELGRTTCTKTQPNLDNCPFHDQPHLKRKAFCSFQIYAVPWQGTMTLSKSTCQDA | restrained cytokine secretion | decreased IL-8 secretion | increased survival and 20% | 10% | 5% | 10% | 10% | 15% | inhibited the replication | preserved the gut microbiome | decrease in systemic MIP-1 and IL-8 secretion
2 | rCST9: human recombinant cystatin 9, cysteine proteinase inhibitor; purchased from American Research Products, Inc. (protein, UniProt Q5W186 29-159, looked up) Cystatin-9: WCSEEEMGGNNKIVQDPMFLATVEFALNTFNVQSKEEHAYRLLRVLSSWREDSMDRKWRGKMVFSMNLQLRQTVCRKFEDDIDNCPFQESLELNNVRQGISFPQVHSCGCCMGCGVGTGAADKAIPRDKGK | restrained cytokine secretion | decreased IL-8 secretion | increased survival and 10% | 10% | 5% | 10% | 10% | 15% | inhibited the replication | preserved the gut microbiome | decrease in systemic MIP-1 and IL-8 secretion
